T1: murine MerTK extracellular domain (ECD), recombinant (mouse, UniProt Q60805 19-497)
T1 construct: also called moMerTK; mouse MerTK; not shown: polyHis tag or TEVS/Thrombin/murine IgG2a Fc tag
T1 sequence: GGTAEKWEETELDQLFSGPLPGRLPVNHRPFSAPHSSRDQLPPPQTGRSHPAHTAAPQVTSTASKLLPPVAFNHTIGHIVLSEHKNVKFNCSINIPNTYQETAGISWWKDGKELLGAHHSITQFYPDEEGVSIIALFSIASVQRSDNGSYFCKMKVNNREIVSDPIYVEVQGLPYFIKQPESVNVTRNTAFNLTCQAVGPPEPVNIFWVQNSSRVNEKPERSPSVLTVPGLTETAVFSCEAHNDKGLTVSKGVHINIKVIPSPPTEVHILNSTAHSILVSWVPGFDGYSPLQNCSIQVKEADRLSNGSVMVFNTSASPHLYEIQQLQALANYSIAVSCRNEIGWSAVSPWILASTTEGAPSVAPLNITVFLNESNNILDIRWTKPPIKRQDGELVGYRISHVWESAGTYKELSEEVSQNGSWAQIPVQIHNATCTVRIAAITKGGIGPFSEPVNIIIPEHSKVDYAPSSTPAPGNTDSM

T2: cyno MerTK extracellular domain (ECD), recombinant (cynomolgus monkey, UniProt Q12866 21-505 (human entry))
T2 construct: also called cynomolgus MerTK; not shown: polyHis tag or TEVS/Thrombin/murine IgG2a Fc tag
T2 chain: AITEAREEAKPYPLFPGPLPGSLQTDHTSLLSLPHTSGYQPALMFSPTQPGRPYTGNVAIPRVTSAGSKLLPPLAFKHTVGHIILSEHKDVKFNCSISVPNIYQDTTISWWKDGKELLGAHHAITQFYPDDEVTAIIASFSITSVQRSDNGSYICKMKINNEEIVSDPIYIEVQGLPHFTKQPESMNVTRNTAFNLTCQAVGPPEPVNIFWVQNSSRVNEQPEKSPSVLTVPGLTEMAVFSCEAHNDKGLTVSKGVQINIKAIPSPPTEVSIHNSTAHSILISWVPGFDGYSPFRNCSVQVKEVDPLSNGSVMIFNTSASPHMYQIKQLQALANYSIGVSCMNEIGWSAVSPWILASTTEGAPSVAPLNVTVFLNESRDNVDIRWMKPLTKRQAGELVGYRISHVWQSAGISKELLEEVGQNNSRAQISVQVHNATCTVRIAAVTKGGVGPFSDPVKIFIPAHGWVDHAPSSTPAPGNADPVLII

T3: human MerTK extracellular domain (ECD), recombinant (human, UniProt Q12866 21-505)
T3 construct: also called huMerTK; not shown: polyHis tag or TEVS/Thrombin/murine IgG2a Fc tag
T3 sequence: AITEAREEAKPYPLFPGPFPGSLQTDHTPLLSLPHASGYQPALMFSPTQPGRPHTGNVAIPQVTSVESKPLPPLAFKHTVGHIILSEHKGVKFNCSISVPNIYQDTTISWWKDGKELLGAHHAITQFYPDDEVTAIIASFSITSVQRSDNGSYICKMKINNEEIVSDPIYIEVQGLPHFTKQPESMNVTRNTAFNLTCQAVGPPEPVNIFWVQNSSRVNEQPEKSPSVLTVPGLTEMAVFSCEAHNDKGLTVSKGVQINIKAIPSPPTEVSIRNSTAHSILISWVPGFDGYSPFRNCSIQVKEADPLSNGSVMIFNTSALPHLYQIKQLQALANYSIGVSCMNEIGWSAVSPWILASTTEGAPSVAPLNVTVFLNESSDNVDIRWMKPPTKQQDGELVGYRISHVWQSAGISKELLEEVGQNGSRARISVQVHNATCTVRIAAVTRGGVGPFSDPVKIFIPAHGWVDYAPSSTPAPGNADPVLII


What was measured:
Test in all cases: SPR, Carterra LSA, antibody immobilised
[1] = molecular target: T1, murine MerTK extracellular domain …
Protocol: (§1) Binding kinetics of humanized and affinity-matured anti-MerTK antibodies of the present disclosure to human, murine, and cynomolgus MerTK proteins were evaluated as follows. Briefly, anti-MerTK antibodies were prepared by diluting to 10 μg/ml in 10 mM Acetate, pH 4.25 (Carterra, Salt Lake City, Utah), at 300 μl/well. A HC200M sensor chip (Carterra) was activated using the single channel flow cell with a 7-minute injection of a 1:1:1 mixture of 100 mM MES pH 5.5, 100 mM sulfo-NHS, 400 mM EDC (all reconstituted in MES pH 5.5; 100 μl of each mixed in vial immediately before running assay). After switching to the multi-channel array flow cell, the antibodies were injected over the activated chip in a 96-spot array for 15 minutes. The remaining unconjugated active groups on the chip were then blocked by injecting 1M Ethanolamine pH 8.5 (Carterra) for 7 minutes using the single channel flow cell.
(§2) Estimates of affinity were generated by injecting each analyte over the entire antibody array using the single channel flow cell. MerTK analytes were diluted to 33.3, 100, and 300 nM in running buffer, and injected in serial from lowest to highest concentration without regeneration. Two buffer blanks were run between each series (one species per series). Data were processed and analyzed using NextGenKIT high-throughput kinetics analysis software (Carterra). In these experiments, the anti-MerTK antibodies were human IgG1 isotype containing the Fc variant LALAPS.
(§3) The equilibrium dissociation constants (KD) were then calculated from the fitted association and dissociation rate constants (k-on and k-off) for anti-MerTK antibodies of the present disclosure.

[2] = molecular target: T2, cyno MerTK extracellular domain (ECD), …
Protocol: as §1, §2, §3

[3] = molecular target: T3, human MerTK extracellular domain (ECD), …
Protocol: as §1, §2, §3

Binder	binding result [1]	Kd [1] [nM]	Kd [2] [nM]	Kd [3] [nM]
MTK-15.4 (antibody, human IgG1, V domains shown) VH: QVQLVQSGSELKKPGASVKVSCKASGYTFTNYGVHWVRQAPGQGLEWMGWINTYTGEPTYAQGFTGRFVFSLDTSVSTAYLQISSLKAEDTAVYYCARGNRYAYMDYWGQGTLVTVSS VL: EIVLTQSPATLSLSPGERATLSCRASSSVGYMHWYQQKPGQAPRPLIYATSNLASGIPARFSGSGSGTSYTLTISSLEPEDFAVYYCQQWSSNPRTFGGGTKVEIK	no binding (tested: 300 nM)			
MTK-15.3 (antibody, human IgG1, V domains shown) VH: QVQLVQSGSELKKPGASVKVSCKASGYTFTNYGVHWVRQAPGQGLEWMGWINTYTGEPTYAQGFTGRFVFSLDTSVSTAYLQISSLKAEDTAVYYCARGNRYAYMDYWGQGTLVTVSS VL: EIVLTQSPATLSLSPGERATLSCRASSHVSYMHWYQQKPGQAPRPLIYATSNLASGIPARFSGSGSGTSYTLTISSLEPEDFAVYYCQQWSSNPRTFGGGTKVEIK	no binding (tested: 300 nM)		23	21.5
MTK-15.11 (antibody, human IgG1, V domains shown) VH: QVQLVQSGSELKKPGASVKVSCKASGYTFANYGVHWVRQAPGQGLEWMGWINTYEGEPTYAQGFTGRFVFSLDTSVSTAYLQISSLKAEDTAVYYCARGNRYAYQDYWGQGTLVTVSS VL: EIVLTQSPATLSLSPGERATLSCRASSSVSYMHWYQQKPGQAPRPLIYATSNLASGIPARFSGSGSGTSYTLTISSLEPEDFAVYYCQQWSSNPRTFGGGTKVEIK		140	12.5	12.5
MTK-15.1 (antibody, human IgG1, V domains shown) VH: QVQLVQSGSELKKPGASVKVSCKASGYTFTNYGVHWVRQAPGQGLEWMGWINTYTGEPTYAQGFTGRFVFSLDTSVSTAYLQISSLKAEDTAVYYCARGNRYAYQDYWGQGTLVTVSS VL: EIVLTQSPATLSLSPGERATLSCRASSSVSYMHWYQQKPGQAPRPLIYATSNLASGIPARFSGSGSGTSYTLTISSLEPEDFAVYYCQQWSSNPRTFGGGTKVEIK			8	8.3
MTK-15.2 (antibody, human IgG1, V domains shown) VH: QVQLVQSGSELKKPGASVKVSCKASGYTFTNYGVHWVRQAPGQGLEWMGWGNTYTGEPTYAQGFTGRFVFSLDTSVSTAYLQISSLKAEDTAVYYCARGNRYAYMDYWGQGTLVTVSS VL: EIVLTQSPATLSLSPGERATLSCRASSSVSYMHWYQQKPGQAPRPLIYATSNLASGIPARFSGSGSGTSYTLTISSLEPEDFAVYYCQQWSSNPRTFGGGTKVEIK	no binding (tested: 300 nM)		21.5	21.5
MTK-15.9 (antibody, human IgG1, V domains shown) VH: QVQLVQSGSELKKPGASVKVSCKASGYTFTNYGVHWVRQAPGQGLEWMGWINTYTGEPTYAQGFTGRFVFSLDTSVSTAYLQISSLKAEDTAVYYCARGYRYAYMDYWGQGTLVTVSS VL: EIVLTQSPATLSLSPGERATLSCRASSSTSYMHWYQQKPGQAPRPLIYATSNLASGIPARFSGSGSGTSYTLTISSLEPEDFAVYYCQQWSSNPRTFGGGTKVEIK		850	11.5	10
MTK-15.12 (antibody, human IgG1, V domains shown) VH: QVQLVQSGSELKKPGASVKVSCKASGYTFANYGVHWVRQAPGQGLEWMGWINTYQGEPTYAQGFTGRFVFSLDTSVSTAYLQISSLKAEDTAVYYCARGVRYAYMDYWGQGTLVTVSS VL: EIVLTQSPATLSLSPGERATLSCRASSSVGYMHWYQQKPGQAPRPLIYATSNLASGIPARFSGSGSGTSYTLTISSPEPEDFAVYYCQQWSSNPRTFGGGTKVEIK		114	18	17.5

Continued, values first:

binding result [1]	Kd [1] [nM]	Kd [2] [nM]	Kd [3] [nM]	Binder
	2800	3.3	3.3	MTK-15.10 (antibody, human IgG1, V domains shown) VH: QVQLVQSGSELKKPGASVKVSCKASGYTFANYGVHWVRQAPGQGLEWMGWINTYQGEPTYAQGFTGRFVFSLDTSVSTAYLQISSLKAEDTAVYYCTRGARYAYMDYWGQGTLVTVSS VL: EIVLTQSPATLSLSPGERATLSCRASSSVGYMHWYQQKPGQAPRPLIYATSNLASGIPARFSGSGSGTSYTLTISSLEPEDFAVYYCQQWSSNPRTFGGGTKVEIK
	130	2.8	2.3	MTK-15.13 (antibody, human IgG1, V domains shown) VH: QVQLVQSGSELKKPGASVKVSCKASGYTFTNYGVHWVRQAPGQGLEWMGWINTYTGEPTYAQGFTGRFVFSLDTSVSTAYLQISSLKAEDTAVYYCARGNRYAYEDYWGQGTLVTVSS VL: EIVLTQSPATLSLSPGERATLSCRASSSVQYMHWYQQKPGQAPRPLIYATSNLASGIPARFSGSGSGTSYTLTISSLEPEDFAVYYCQQWSSNPRTFGGGTKVEIK
	690	0.8	0.1	MTK-15.5 (antibody, human IgG1, V domains shown) VH: QVQLVQSGSELKKPGASVKVSCKASGYTFTNYGVHWVRQAPGQGLEWMGWINTYTGEPTYAQGFTGRFVFSLDTSVSTAYLQISSLKAEDTAVYYCTRGTRYAYMDYWGQGTLVTVSS VL: EIVLTQSPATLSLSPGERATLSCRASSSVGYMHWYQQKPGQAPRPLIYATSNLASGIPARFSGSGSGTSYTLTISSLEPEDFAVYYCQQWSSNPRTFGGGTKVEIK
	705	0.3	0.1	MTK-15.7 (antibody, human IgG1, V domains shown) VH: QVQLVQSGSELKKPGASVKVSCKASGYTFTNYGVHWVRQAPGQGLEWMGWINTYTGEPTYAQGFTGRFVFSLDTSVSTAYLQISSLKAEDTAVYYCVRGNRYAYMDYWGQGTLVTVSS VL: EIVLTQSPATLSLSPGERATLSCRASSGVSYMHWYQQKPGQAPRPLIYATSNLASGIPARFSGSGSGTSYTLTISSLEPEDFAVYYCQQWSSNPRTFGGGTKVEIK
		1.5	1	MTK-15.6 (antibody, human IgG1, V domains shown) VH: QVQLVQSGSELKKPGASVKVSCKASGYTFTNYGVHWVRQAPGQGLEWMGWINTYTGEPYYAQGFTGRFVFSLDTSVSTAYLQISSLKAEDTAVYYCARGNRYAYMDYWGQGTLVTVSS VL: EIVLTQSPATLSLSPGERATLSCRASSSVGYMHWYQQKPGQAPRPLIYATSNLASGIPARFSGSGSGTSYTLTISSLEPEDFAVYYCQQWSSNPRTFGGGTKVEIK
no binding (tested: 300 nM)		5	4.9	MTK-15.8 (antibody, human IgG1, V domains shown) VH: QVQLVQSGSELKKPGASVKVSCKASGYTFTNYGVHWVRQAPGQGLEWMGWINTYTGEPTYAQGFTGRFVFSLDTSVSTAYLQISSLKAEDTAVYYCARGVRYAYMDYWGQGTLVTVSS VL: EIVLTQSPATLSLSPGERATLSCRASSSVGYMHWYQQKPGQAPRPLIYATSNLASGIPARFSGSGSGTSYTLTISSPEPEDFAVYYCQQWSSNPRTFGGGTKVEIK

Source: patent publication US20210261685A1 (Alector, published 2021)
